Measured values: US20200046811

Biological target: T1, Recombinant Human FGF23 (Fibroblast Growth Factor 23), Q9GZV9
T1 chain: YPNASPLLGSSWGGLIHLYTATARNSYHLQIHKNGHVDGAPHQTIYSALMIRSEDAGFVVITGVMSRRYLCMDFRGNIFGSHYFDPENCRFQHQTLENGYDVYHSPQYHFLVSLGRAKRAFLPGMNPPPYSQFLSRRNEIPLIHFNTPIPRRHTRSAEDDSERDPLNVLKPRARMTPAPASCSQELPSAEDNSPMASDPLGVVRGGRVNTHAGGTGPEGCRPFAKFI

B1: Recombinant human t-PA (tissue plasminogen activator) (protein)
chain: SYQVICRDEKTQMIYQQHQSWLRPVLRSNRVEYCWCNSGRAQCHSVPVKSCSEPRCFNGGTCQQALYFSDFVCQCPEGFAGKCCEIDTRATCYEDQGISYRGTWSTAESGAECTNWNSSALAQKPYSGRRPDAIRLGLGNHNYCRNPDRDSKPWCYVFKAGKYSSEFCSTPACSEGNSDCYFGNGSAYRGTHSLTESGASCLPWNSMILIGKVYTAQNPSAQALGLGKHNYCRNPDGDAKPWCHVLKNRRLTWEYCDVPSCSTCGLRQYSQPQFRIKGGLFADIASHPWQAAIFAKHRRSPGERFLCGGILISSCWILSAAHCFQERFPPHHLTVILGRTYRVVPGEEEQKFEVEKYIVHKEFDDDTYDNDIALLQLKSDSSRCAQESSVVRTVCLPPADLQLPDWTECELSGYGKHEALSPFYSERLKEAHVRLYPSSRCTSQHLLNRTVTDNMLCAGDTRSGGPQANLHDACQGDSGGPLVCLNDGRMTLVGIISWGLGCGQKDVPGVYTKVTNYLDWIRDNMRP
- in vitro proteolysis of FGF23, silver stained SDS-PAGE gel: smaller fragments are generated on a silver stained SDS-PAGE gel indicating proteolytic cleavage
